Assay [1] concerns the target T1, TMR-phalloidin-labelled biotinylated actin filaments (Cytoskeleton) (UniProt P68135 1-377, biotin (~1 biotin per monomer)). The assay is described as follows: optical trap.
Assay [2] addresses T1, TMR-phalloidin-labelled biotinylated …. The assay is described as follows: optical trap. This is another data set of the same source.

Results on six molecules are retold here after article doi:10.1101/258020 (bioRxiv, 2018).

Changes are numbered by the printed parent chain. Names may count otherwise.

B1: human β-cardiac myosin subfragment-1 (short S1, sS1 (complex)
chain 1: MGDSEMAVFGAAAPYLRKSEKERLEAQTRPFDLKKDVFVPDDKQEFVKAKIVSREGGKVTAETEYGKTVTVKEDQVMQQNPPKFDKIEDMAMLTFLHEPAVLYNLKDRYGSWMIYTYSGLFCVTVNPYKWLPVYTPEVVAAYRGKKRSEAPPHIFSISDNAYQYMLTDRENQSILITGESGAGKTVNTKRVIQYFAVIAAIGDRSKKDQSPGKGTLEDQIIQANPALEAFGNAKTVRNDNSSRFGKFIRIHFGATGKLASADIETYLLEKSRVIFQLKAERDYHIFYQILSNKKPELLDMLLITNNPYDYAFISQGETTVASIDDAEELMATDNAFDVLGFTSEEKNSMYKLTGAIMHFGNMKFKLKQREEQAEPDGTEEADKSAYLMGLNSADLLKGLCHPRVKVGNEYVTKGQNVQQVIYATGALAKAVYERMFNWMVTRINATLETKQPRQYFIGVLDIAGFEIFDFNSFEQLCINFTNEKLQQFFNHHMFVLEQEEYKKEGIEWTFIDFGMDLQACIDLIEKPMGIMSILEEECMFPKATDMTFKAKLFDNHLGKSANFQKPRNIKGKPEAHFSLIHYAGIVDYNIIGWLQKNKDPLNETVVGLYQKSSLKLLSTLFANYAGADAPIEKGKGKAKKGSSFQTVSALHRENLNKLMTNLRSTHPHFVRCIIPNETKSPGVMDNPLVMHQLRCNGVLEGIRICRKGFPNRILYGDFRQRYRILNPAAIPEGQFIDSRKGAEKLLSSLDIDHNQYKFGHTKVFFKAGLLGLLEEMRDERLSRIITRIQAQSRGVLARMEYKKLLERR
chain 2: not shown
As to B1, the “k0 (detachment rate from actin at zero load) with F3345” value in assay [1] turned out to be 36 s⁻¹.

B2: human β-cardiac myosin sS1-eGFP (MYH7 1-808) D239N with essential light chain (complex)
chain 1: B1 chain 1 with D239N
chain 2: not shown
B2: the “k0 (detachment rate from actin at zero load) with F3345” value in assay [1] stood at 24 s⁻¹. Moreover, in assay [2], the “k0 (detachment rate from actin at zero load)” value was determined as 140 s⁻¹.

B3: human β-cardiac myosin sS1-eGFP (MYH7 1-808) H251N with essential light chain (complex)
chain 1: B1 chain 1 with H251N
chain 2: not shown
Take B3: the “k0 (detachment rate from actin at zero load) with F3345” value in assay [1] was 20 s⁻¹. For the same molecule, the “k0 (detachment rate from actin at zero load)” value in assay [2] stood at 152 s⁻¹.

B4: human β-cardiac myosin sS1-eGFP (MYH7 1-808) R237W with essential light chain (complex)
chain 1: B1 chain 1 with R237W
chain 2: not shown
Turning to B4, the “k0 (detachment rate from actin at zero load)” value in assay [2] was found to be 155 s⁻¹.

B5: human β-cardiac myosin sS1-eGFP (MYH7 1-808) S532P with essential light chain (complex)
chain 1: B1 chain 1 with S532P
chain 2: not shown
In the case of B5, the “k0 (detachment rate from actin at zero load)” value in assay [2] came out at 80 s⁻¹.

B6: human β-cardiac myosin sS1-eGFP (MYH7 1-808) A223T with essential light chain (complex)
chain 1: B1 chain 1 with A223T
chain 2: not shown
Take B6: the “k0 (detachment rate from actin at zero load)” value in assay [2] was determined as 104 s⁻¹.
